Test: yeast display, Sf9 membrane polyspecificity reagent, FACS + sequencing; frameworks hold sequencing errors
In short: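 Galactose induction of a Saccharomyces cerevisiae BJ5465 synthetic nanobody display library ran 36–48 hours. The cells were then stained for 1 hour at 4 °C with 10% biotinylated, detergent-solubilized Sf9 membrane reagent, pulled down on streptavidin microbeads and FACS-sorted into low and high (top ~1%) gates on expression and reagent-binding fluorescence. Labels for polyreactivity follow the gate of origin.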

QVQLVESGGGLVQAGGSLRLSCAASGRAFYGNAMGWYRPAPGKERELVASISQRGGSTYYADSVKGRFTISRDTAKNTVYLQMNSLKPEDTAVYYCAARRKGYSTGLGHRISYDYWGQGTQVTVSS
polyreactivity (PSR sort gate): high polyreactivity

QVQLVESGGGLVQAGGSLRLSCAASGRFLVLNAMGWYRQAPAKERELVADLTSVGSTYYADSVKGRFTISRDNAKNTVDLQMNSLKPEDTAVYYFAADWNTYPDYQQSYFVSYEYNYWGQGTQVTVSS
polyreactivity (PSR sort gate): low polyreactivity

QVQLVESGGGLVQAGGSLRLSCAASGRICPKKGMGWYRQAPWKERELVAAITSGTSTYYADSVKGRFTISRDNAKNTVYLQMNSLKPEDTAVYYCNAVHARYRCQGDYWGQGTQVTVSS
polyreactivity (PSR sort gate): low polyreactivity

QVQLVESGGGLVQAGGSLRLSCAASGRICVYYAMGWYRQAPGKEREFVAAISWSGGSTYYADSVKGRFTISRDNAKNTVYLQMNSLKPEDTAVYYCAADVPWTVYYRWYDYWGQGTLVTVSS
polyreactivity (PSR sort gate): low polyreactivity

QVQLVESGGGLVQAGGSLRLSCAASGRIDAYTMGWYRQAPGKERELVAAISTSTSNTYYADSVKGRFTISRDNAKNTVYLQMNSLKPEDTAVYYCDEAYYSPWWGYYWGQGTQVTVSS
polyreactivity (PSR sort gate): low polyreactivity

QVQLVESGGGLVQAGGSLRLSCAASGRIDHNAMDWYRQAPGKERELVAAITWSGGGTYYADSVKGRFTISRDNAKNTVYLQMNSLKPEDTAVYYCNVRRAFSGWRGYDYWGQGTQVTVSS
polyreactivity (PSR sort gate): high polyreactivity

QVQLVESGGGLVQAGGSLRLSCAASGRIDLYNDMGWYRQAPGKERELVAAITWRSGSTYYADSVKGRFTFSRDNAKNTFYCQMNSLNPEDTAVYYCAKRGSGYKQDFKSYSGHYWGHGTQVTVSS
polyreactivity (PSR sort gate): high polyreactivity

QVQLVESGGGLVQAGGSLRLSCAASGRIFAAYAMGWYRQAPGKERELVAAITRRGSTYYADSVKGRFTISRDNAKNTVYLQMNSLKPEDTAVYYCNKVPLFQYSTAWYDYWGQGTQVTVSS
polyreactivity (PSR sort gate): high polyreactivity

QVQLVESGGGLVQAGGSLRLSCAASGRIFAFYALGLYRQAPGKEREFVAAITYSGGNTNYADSVKGRFTISRDNAKNTVYLQMNSLKPEDTAVYYCAADLVYGVYYQEDYWGQGTQVTVSS
polyreactivity (PSR sort gate): low polyreactivity

QVQLVESGGGLVQAGGSLRLSCAASGRIFAGYAMGWYRQAPGKERELVAAIRSGGSTNYADSVKGRFTISRDNAKNTVYLQMNSLKPEDTAVYYCAAETPVIPWDEMDYWGQGTQVTVSS
polyreactivity (PSR sort gate): low polyreactivity

QVQLVESGGGLVQAGGSLRLSCAASGRIFAGYAMGWYRQAPGKERELVAAISSGGGSTYYADSVKGRFTISRDNAKNTVYLQMNSLKPEDTAVYYCARDSYPHGRARFDYWGQGTQVTVSS
polyreactivity (PSR sort gate): high polyreactivity

QVQLVESGGGLVQAGGSLRLSCAASGRIFAGYAMGWYRQAPGKERELVAAITGTGDRTYYADSVKGRFTISRDNAKNTVYLQMNSLKPEDTAVYYCAAAYGAYYPWGYDYWGQGTQVTVSS
polyreactivity (PSR sort gate): low polyreactivity

QVQLVESGGGLVQAGGSLRLSCAASGRIFAKNAMGWYRQAPGKERELVAAINHSGGSTYYADSVKGRFTISRDNAKNTVYLQMNSLKPEDTAVYYCAALGSGVPRYYYWGQGTQVTVSS
polyreactivity (PSR sort gate): high polyreactivity

QVQLVESGGGLVQAGGSLRLSCAASGRIFAKNTMGWYRQAPGKERELVAAITWSSGNTDYADSVKGRFTISRDNAKNTVYLQMNSLKPEDTAVYYCNARFYYRPLRFSYDYWGQGTQVTVSS
polyreactivity (PSR sort gate): high polyreactivity

QVQLVESGGGLVQAGGSLRLSCAASGRIFAKYAMGWYRQAPGKERELVAAISLSGGRTYYADSVKGRFTISRDNAKNTVYLQMNSLKPEDTAVYYCAAEFYPIRYYGGYDYWGQGTQVTVSS
polyreactivity (PSR sort gate): low polyreactivity

QVQLVESGGGLVQAGGSLRLSCAASGRIFALNALGWYRQAPGKERELVATFRWSGGSTYYADSVKGRFTISRDYAKNTVYLQMNSLKPEDTAVYYCAAYSGNRRTYDYWGHGTQVTVSS
polyreactivity (PSR sort gate): high polyreactivity

QVQLVESGGGLVQAGGSLRLSCAASGRIFALNVMGWYRQAPGKERELVAAITWSSGRTYYADSVKGRFTISRDNAKNTVYLQMNSLKPEDTAVYYCAAAFRPRAIELSYYYWGQGTQVTVSS
polyreactivity (PSR sort gate): high polyreactivity

QVQLVESGGGLVQAGGSLRLSCAASGRIFAPYDMGWYRQAPGKERELVASITSGGSTNYTDSVKGRFTISRVNAKNTVYLQMNSLIPEDTAVYYCNTAKISEPIDPRQRVWGRTYDYWGQGTQVTVSS
polyreactivity (PSR sort gate): low polyreactivity

QVQLVESGGGLVQAGGSLRLSCAASGRIFAQYAMGWYRQAPGKERELVAAISRSGGTTYYADSVKGRFTISRDNAKNTVYLQMNSLKPDDTAVYYCAASLRYLYYYWGQGTQVTVSS
polyreactivity (PSR sort gate): high polyreactivity

QVQLVESGGGLVQAGGSLRLSCAASGRIFAQYAMGWYRQAPGKERELVADISSGVRTYADSVKVRFTISRDNAKNTVYLQMNSLKPEDTAVYYCNAYYIIFTRNDYWGQGTQVTVSS
polyreactivity (PSR sort gate): low polyreactivity

QVQLVESGGGLVQAGGSLRLSCAASGRIFARNAMGWYRQAPGKERELVADITSTGSTNYADSVKGRFTISRDNAMITVYLQMNSLKPEDTAVYYCAADYYTGYVWEDYYWGQGTQVTVSS
polyreactivity (PSR sort gate): low polyreactivity

QVQLVESGGGLVQAGGSLRLSCAASGRIFARYAMGWYRQAPGKERELVAAITKSVGSTYYADSVKGRFTISRDNAKNTVYLQMNSLKPEDTAVYYCNAVARGYGYDYWGQGTQVTVSS
polyreactivity (PSR sort gate): high polyreactivity

QVQLVESGGGLVQAGGSLRLSCAASGRIFARYAMGWYRQAPGTERELVASITRSGGSTYYADSVKGRFTISRDNAKNTVYLQMNSLKPEDTAVYYCAARYGRVRDVIPYDYWGQGTQVTVSS
polyreactivity (PSR sort gate): high polyreactivity

QVQLVESGGGLVQAGGSLRLSCAASGRIFASYAMGWYRQAPGKERELVAAISLSGGSTYYADSVKGRFTISRDNAKNTVYLLMNSLKPEDNAVYYCNRLSNNREYVYWGQGTQLTVSS
polyreactivity (PSR sort gate): high polyreactivity

QVQLVESGGGLVQAGGSLRLSCAASGRIFASYAMGWYRQAPGKERELVAAITRSGGRTYYADSVKGRFTISRDNAKNTVYLQMNSLKPADTAVDYCAVDTVTRTVLVYGDRNDSWGQGTQVTVSS
polyreactivity (PSR sort gate): high polyreactivity

QVQLVESGGGLVQAGGSLRLSCAASGRIFASYTMGWYRQAPGKETELVAAISWRGDGTYYADSVKGRFTISRDYAKNTVYLQMNSLKPEDTAVYYCAADYVYYYHEYDYWGQGTQVTVSS
polyreactivity (PSR sort gate): low polyreactivity

QVQLVESGGGLVQAGGSLRLSCAASGRIFASYVMGWYRQAPGKERELVAAISYGGSRTYYADSVKGRFTISRDNAKNTVYLQMNSLKPEDTAVYYCNARSKFYYHYWMDYWGQGTQVTVSS
polyreactivity (PSR sort gate): high polyreactivity

QVQLVESGGGLVQAGGSLRLSCAASGRIFAVNAMGLYRQAPGKERELVARIRRIGGSTYYADSVKGRFTISRDNAKNTVYLQMNSQKPEDTAVYYCAAVSRVWLNLYNYWGQGTQVTVSS
polyreactivity (PSR sort gate): high polyreactivity

QVQLVESGGGLVQAGGSLRLSCAASGRIFAVNAMGWYRQAPGKERELVASIRWSGGSTYYADSVKGRFTISRDNAKNTVYLQMNSLKPEDTAVYYCAAVIYLWGQGTQVTVSS
polyreactivity (PSR sort gate): high polyreactivity

QVQLVESGGGLVQAGGSLRLSCAASGRIFAVNAMGWYRQAPGKERELVASIRWSGGSTYYADSVKGRFTISRDNAKNTVYLQMNTLKPEDTAVYYCNKVRGKTYYGEGDYWGQGTQVTVSS
polyreactivity (PSR sort gate): high polyreactivity

QVQLVESGGGLVQAGGSLRLSCAASGRIFAVNAMGWYRQAPGKERELVATINSGGNTNYADSVKGRFTISRDNAKNTVYLQMNSLKPVDTAVYYCAARAFSAWLEMDYWGQGTQVTVSS
polyreactivity (PSR sort gate): low polyreactivity

QVQLVESGGGLVQAGGSLRLSCAASGRIFAVYAMGWYRQAPGKERELVAAIRWSGVRTYYADSVTGRFTISRDTAKKTVYLQMNSLKPEDTAVYYCAADYSGQYYSPVSYLYDYWGQGTQVTVSS
polyreactivity (PSR sort gate): high polyreactivity

QVQLVESGGGLVQAGGSLRLSCAASGRIFAWYAMGWYRQAPGKERELVAAISSGGSTNYADSVKGRFTISRDNAKNTVYLQMNSLKPEDTAVYYCNRYPVRDTGGYWGQGTQVTVSS
polyreactivity (PSR sort gate): low polyreactivity

QVQLVESGGGLVQAGGSLRLSCAASGRIFAYNAMGWYRQAPGKERELVAAISWRVGCTYYADSVKGRFTISRDHAKNTVYLQMNSLKPEDTAVYYCNEAYYRHYQGDYWGQGTQVTVSS
polyreactivity (PSR sort gate): high polyreactivity

QVQLVESGGGLVQAGGSLRLSCAASGRIFAYNTMGWSRQAPGKERELVAVITSGGSTNYADSVKGRFTISRDNAKNTVYLQMNSLKPEDTAVYYCAKRPYCRSGGSRYDYWGQGTQVTVSS
polyreactivity (PSR sort gate): high polyreactivity

QVQLVESGGGLVQAGGSLRLSCAASGRIFAYYAMGWYRQAPGKERELVAAINRSGVRTYYADSVKGRFTISRDNAMNTVYFQINSLKPEDTAVYYCAAYVVGGEGDYWGQGTQVTVSS
polyreactivity (PSR sort gate): high polyreactivity

QVQLVESGGGLVQAGGSLRLSCAASGRIFAYYAMGWYRQAPGKERELVAAITSDGSSTYYADSVKGRFTISRDNAKNTVYLQMNSLKPEDTAVDYCAAGTYPFWDWIFDLWVDYWGQGTQVTVSS
polyreactivity (PSR sort gate): high polyreactivity

QVQLVESGGGLVQAGGSLRLSCAASGRIFAYYAMGWYRQAPGKERELVADITRSGARTYYADSVKGRFTISRDNANNTVYLQMNSLTPEDTAVYYCAAEGVRIGTRYDYWGQGTQVTVSS
polyreactivity (PSR sort gate): high polyreactivity

QVQLVESGGGLVQAGGSLRLSCAASGRIFAYYTMGWYRQAPGKERELVAAITNGGRTSYADSVKGRFTISRDNAKNTVYLQMNSLKPEDTAVYYCNAQQYRWPRVYYNYNYWGQGTQVTVSS
polyreactivity (PSR sort gate): high polyreactivity

QVQLVESGGGLVQAGGSLRLSCAASGRIFDANAMGWYRQAPGKERELVAAITYSGGRTYYADSVKGRFTISRDNAKNTVYLQMNSLKPVDTAVYYCAKRYAYIYDSWGQGTQVTVSS
polyreactivity (PSR sort gate): low polyreactivity

QVQLVESGGGLVQAGGSLRLSCAASGRIFDDNAMGWYRQAPGKERELVAAITGPDDSTDYADSVKGRFTISRDNAKNTVYLQMNSLKPEDTAVYYCAKDAGYWYYWNGYWGQGTQVTVSS
polyreactivity (PSR sort gate): high polyreactivity

QVQLVESGGGLVQAGGSLRLSCAASGRIFDDYAMGWYRQAPGKERELVAAISWSGGSTYYADSVKGRFTISRDNAKNTVYLQMNSLKPEDTAVYYCAAPYHSYKRIGYDYWGQGTQVTVSS
polyreactivity (PSR sort gate): low polyreactivity

QVQLVESGGGLVQAGGSLRLSCAASGRIFDEYAMGWYRQAPGKERELVAAIDTSTGSTYYADSVKGRFTISRDNAKNTVYLQMNSLKPEDTAVYYCAAEVYFGLFYVVFQYDYWGQGTQVTVSS
polyreactivity (PSR sort gate): high polyreactivity
